The values below come from patent US20060009622A1 (ADMINISTRATORS OF THE TULANE EDUCATIONAL FUND, published 2006).

Numbered stars: 1 amine (or outer) side, 2 acyl side, 3 side chain; on linkers, the order of the positions; unused ones are H or OH. Bridge positions count the residues as written; N and C are the ends. Square brackets hold non-standard residues; d marks the D form. Ends that are not written are not given here. NGly(2-(methylamino)ethyl) = CN(CCN(CC(=O)[*:2])[*:1])[*:3]; N(2-Aminoethyl)Gly = O=C(CN(CCN[*:3])[*:1])[*:2]; Nle = CCCC[C@H](N)C(=O)O

The chains are these.
B1: camptothecin-carbonyl-N-(2-aminoethyl)-glycine-D-Ser-Nle-D-Tyr-D-Ser-cyclo[Cys-Phe-D-Trp-Lys-Thr-Cys]-Thr-amide (peptide)
peptide: [N(2-Aminoethyl)Gly][dS][Nle][dY][dS]CF[dW]KTCT-NH2
modifications: disulfide 6-11; not fully specified (N-terminus); printed as camptothecin-carbonyl-N-(2-aminoethyl)-glycine-D-Ser-Nle-D-Tyr-D-Ser-cyclo[Cys-Phe-D-Trp-Lys-Thr-Cys]-Thr-amide
B2: combretastatin-carbonyl-N-(2-aminoethyl)-glycine-D-Ser-Nle-D-Tyr-D-Ser-cyclo[Cys-Phe-D-Trp-Lys-Thr-Cys]-Thr-amide (peptide)
peptide: [N(2-Aminoethyl)Gly][dS][Nle][dY][dS]CF[dW]KTCT-NH2
modifications: disulfide 6-11; not fully specified (N-terminus); printed as combretastatin-carbonyl-N-(2-aminoethyl)-glycine-D-Ser-Me-D-Tyr-D-Ser-cyclo[Cys-Phe-D-Trp-Lys-Thr-Cys]-Thr-amide
B3: camptothecin-carbonyl-N-(N-methyl-2-aminoethyl)-glycine-D-Ser-Nle-D-Tyr-D-Ser-cyclo[Cys-Phe-D-Trp-Lys-Thr-Cys]-Thr-amide (peptide)
peptide: [NGly(2-(methylamino)ethyl)][dS][Nle][dY][dS]CF[dW]KTCT-NH2
modifications: disulfide 6-11; not fully specified (N-terminus); printed as camptothecin-carbonyl-N-(N-methyl-2-aminoethyl)-glycine-D-Ser-Nle-D-Tyr-D-Ser-cyclo[Cys-Phe-D-Trp-Lys-Thr-Cys]-Thr-amide

The test deals with human type 2 somatostatin receptor (human, UniProt P30874 1-369, limits assumed). Nature of the test: cell-based or functional assay.
human type 2 somatostatin receptor, sequence (P30874 whole entry): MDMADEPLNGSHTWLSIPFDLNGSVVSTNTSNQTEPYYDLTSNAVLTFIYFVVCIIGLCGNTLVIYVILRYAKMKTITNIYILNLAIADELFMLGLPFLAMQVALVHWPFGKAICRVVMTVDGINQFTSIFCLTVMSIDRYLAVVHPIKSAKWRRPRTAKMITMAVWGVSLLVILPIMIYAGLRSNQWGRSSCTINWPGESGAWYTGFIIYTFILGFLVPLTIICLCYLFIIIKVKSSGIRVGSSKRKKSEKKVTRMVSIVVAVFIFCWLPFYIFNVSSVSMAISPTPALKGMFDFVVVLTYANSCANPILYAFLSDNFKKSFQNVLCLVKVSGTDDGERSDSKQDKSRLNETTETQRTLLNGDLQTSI
With “somatostatin-14 (from UniProt P61278 89-116) (peptide)”, the Growth Hormone Inhibition IC50, nM (inhibition of GNRH-stimulated GH release from monolayer cultures of rat pituitary cells) was determined as 0.63 nM.
The result for B1 reads 0.32 nM; that for B2, 0.31 nM; that for B3, 0.27 nM.
